The Human Domainome abundance scans (Beltran et al. 2025)
± gives the uncertainty stated by the source.

B1: Activity-dependent neuroprotector homeobox protein, residues 770 to 810; numbered along this chain, Q9H2P0 (parent)
chain: FLTKYFNKQPYPTRREIEKLAASLWLWKSDIASHFSNKRKK

Variants of: B1
Assay: abundance fitness (aPCA) (normalised: wild type 0, dead -1); higher = more abundant; growth selection in yeast, the domain comes from the species named
Conditions: Homo sapiens

FLTKYFNKQPYPTRREIEKLAASLWLWKSYIASHFSNKRKK and FLTKYFNKQPYPTRREIEKLAASLWLWKSDIAAHFSNKRKK are within error of each other in abundance fitness: -0.082 ± 0.13 for the first, 0.014 ± 0.058 for the second.

Compared with FLTKYFNKQPYPTRREIEKLAASLWLWKSDIASHFYNKRKK, FLTKYFNKQPYPTRREIEKLRASLWLWKSDIASHFSNKRKK is higher in abundance fitness: -0.37 ± 0.11 for the first, -0.021 ± 0.063 for the second.

FLTKYFNKQPYPTRREIEKLAASLWLWKSDIASMFSNKRKK and FLTKYFNKQPYPTRREIEKLAASLWLWKSHIASHFSNKRKK are within error of each other in abundance fitness: 0.043 ± 0.091 for the first, -0.124 ± 0.092 for the second.

First: FLTKYFNKQPFPTRREIEKLAASLWLWKSDIASHFSNKRKK
Second: DLTKYFNKQPYPTRREIEKLAASLWLWKSDIASHFSNKRKK
The abundance fitness of the first is higher: -0.182 ± 0.13 for the first, -0.805 ± 0.27 for the second.

FLTKYFNKQPYPTRREIEKLAASLWLWKLDIASHFSNKRKK and FLTKYFNKAPYPTRREIEKLAASLWLWKSDIASHFSNKRKK are within error of each other in abundance fitness: -0.145 ± 0.058 for the first, -0.269 ± 0.07 for the second.

Compared with FLTKYFNKQPYPTRREIEKLAASLWLWKSDIALHFSNKRKK, FLTKYFNKQPYPTRREIEKLWASLWLWKSDIASHFSNKRKK is higher in abundance fitness: -0.154 ± 0.053 for the first, 0.008 ± 0.053 for the second.

FLTKYFNKQPYPTRREIEKLAASLWLWKSDIASHFSNKRKA and FLTKYFNKQPYPTRREIEKLAASLWLWKSDIAWHFSNKRKK are within error of each other in abundance fitness: -0.319 ± 0.23 for the first, -0.147 ± 0.082 for the second.

FLTKYFNKQPYPTRREIEKLAASLWLWKSDIASHFSNKAKK and FLTKYFNKQPYPTRREIAKLAASLWLWKSDIASHFSNKRKK are within error of each other in abundance fitness: -0.076 ± 0.052 for the first, -0.025 ± 0.047 for the second.

Going from FLTKYFNKQPYPTRREIEKLAASLWLWKSDIASHFGNKRKK to FLTKYFNKGPYPTRREIEKLAASLWLWKSDIASHFSNKRKK, the abundance fitness falls from 0.083 ± 0.055 to -0.133 ± 0.12.

Going from FLPKYFNKQPYPTRREIEKLAASLWLWKSDIASHFSNKRKK to FLTKYFNKQPYPTRREIEKLAASLWLWKSDIASHMSNKRKK, the abundance fitness rises from -0.935 ± 0.13 to 0.004 ± 0.061.

Compared with FLTKYFNKQPYPTRREIEKLAASLWLWCSDIASHFSNKRKK, FLTKYFNKQPYPTRREIEKLAASLWLWKSDIASHFSNKRAK is lower in abundance fitness: 0.317 ± 0.059 for the first, -0.013 ± 0.096 for the second.

First: FLTKYFNKQPYPTRREIEALAASLWLWKSDIASHFSNKRKK
Second: FLTKYFNKQPYPTRRWIEKLAASLWLWKSDIASHFSNKRKK
The abundance fitness of the first is lower: -0.52 ± 0.07 for the first, 0.173 ± 0.089 for the second.

First: FLTKYFNKQPYPTRREIEKLAASLWLWKSDIASHFSNKVKK
Second: FLTKYFNKQPYPTRREIELLAASLWLWKSDIASHFSNKRKK
The abundance fitness of the first is higher: -0.185 ± 0.073 for the first, -0.63 ± 0.089 for the second.

Compared with FLTKYFNKQPYPTRLEIEKLAASLWLWKSDIASHFSNKRKK, FLTKYFNKQPYPTRREIVKLAASLWLWKSDIASHFSNKRKK is lower in abundance fitness: -0.211 ± 0.058 for the first, -0.509 ± 0.063 for the second.

FLTKYFNKQPYPTRREIEKLAASLWLWKSDIASHFCNKRKK and FLTKYFNKQPYPTRREIEKLAASLWLWKSDIASHFSGKRKK are within error of each other in abundance fitness: -0.006 ± 0.064 for the first, 0.022 ± 0.05 for the second.

First: FLTKYFNKQPYPTPREIEKLAASLWLWKSDIASHFSNKRKK
Second: FLTKYFRKQPYPTRREIEKLAASLWLWKSDIASHFSNKRKK
The abundance fitness of the first is lower: -0.391 ± 0.14 for the first, -0.174 ± 0.045 for the second.

Compared with FLTKYFNKQPYPTRGEIEKLAASLWLWKSDIASHFSNKRKK, FLYKYFNKQPYPTRREIEKLAASLWLWKSDIASHFSNKRKK is lower in abundance fitness: -0.088 ± 0.061 for the first, -0.619 ± 0.18 for the second.

FLTKYFNKQPYPTRREIEKLAASLWLWKSDIASHFSNWRKK and FLTNYFNKQPYPTRREIEKLAASLWLWKSDIASHFSNKRKK are within error of each other in abundance fitness: -0.242 ± 0.11 for the first, -0.419 ± 0.18 for the second.

FLTKYFNKQPVPTRREIEKLAASLWLWKSDIASHFSNKRKK and FLTKYFNKQPYPTRREIEKLAASLNLWKSDIASHFSNKRKK are within error of each other in abundance fitness: 0.031 ± 0.053 for the first, -0.021 ± 0.096 for the second.

FLTRYFNKQPYPTRREIEKLAASLWLWKSDIASHFSNKRKK and FLTKYFNKQPYPTRREIEKLAASLWLWKSDIASHFSNKRKY are within error of each other in abundance fitness: -0.549 ± 0.11 for the first, -0.378 ± 0.079 for the second.

Compared with FLIKYFNKQPYPTRREIEKLAASLWLWKSDIASHFSNKRKK, FLTKYFNKQAYPTRREIEKLAASLWLWKSDIASHFSNKRKK is higher in abundance fitness: -0.475 ± 0.1 for the first, -0.095 ± 0.068 for the second.

First: FLTKYFNKQPYPTRREIEKLAASLWWWKSDIASHFSNKRKK
Second: FLTKYFNKQPYPTRREIEKLAASLWLWKSDIAFHFSNKRKK
The abundance fitness of the first is higher: 0.044 ± 0.075 for the first, -0.244 ± 0.073 for the second.

Going from FLTKYFNKQHYPTRREIEKLAASLWLWKSDIASHFSNKRKK to FLTKYFNKQPYPTRREQEKLAASLWLWKSDIASHFSNKRKK, the abundance fitness falls from -0.153 ± 0.13 to -0.89 ± 0.14.

Compared with FLCKYFNKQPYPTRREIEKLAASLWLWKSDIASHFSNKRKK, FLTKYFNKQPYPTRREIEKLAASLWLWWSDIASHFSNKRKK is higher in abundance fitness: -0.536 ± 0.081 for the first, 0.13 ± 0.067 for the second.

Going from FLTKYFNKQCYPTRREIEKLAASLWLWKSDIASHFSNKRKK to FLTKYFNKQPYPTRREIEKLAASLWLWKSDIASHFVNKRKK, the abundance fitness falls from 0.011 ± 0.077 to -0.262 ± 0.072.

FLTKYFNKQSYPTRREIEKLAASLWLWKSDIASHFSNKRKK and FLTKYFNKQPYPTRRECEKLAASLWLWKSDIASHFSNKRKK are within error of each other in abundance fitness: 0.06 ± 0.068 for the first, -0.024 ± 0.072 for the second.

Going from FLTKYFNKQPYPTRREIEKLAASLWLLKSDIASHFSNKRKK to FLTKYFNKQPYPTRREIEKLAASPWLWKSDIASHFSNKRKK, the abundance fitness falls from -0.04 ± 0.05 to -0.289 ± 0.068.

Compared with FLTKYHNKQPYPTRREIEKLAASLWLWKSDIASHFSNKRKK, FLTKYFNKQPYPTRREIWKLAASLWLWKSDIASHFSNKRKK is higher in abundance fitness: -0.794 ± 0.089 for the first, -0.356 ± 0.11 for the second.

First: FLTKYFNKQPYPWRREIEKLAASLWLWKSDIASHFSNKRKK
Second: FLTKYFNKQPYSTRREIEKLAASLWLWKSDIASHFSNKRKK
The abundance fitness of the first is higher: 0.221 ± 0.072 for the first, -0.102 ± 0.061 for the second.

First: FLTKYFWKQPYPTRREIEKLAASLWLWKSDIASHFSNKRKK
Second: FLTKYFNKSPYPTRREIEKLAASLWLWKSDIASHFSNKRKK
The abundance fitness of the first is lower: -0.958 ± 0.21 for the first, -0.139 ± 0.062 for the second.

Compared with FLTKYFNKQPYPTRREIEKLAASLWLWKSDIASHDSNKRKK, FLTKYFNKQPYPTRREIRKLAASLWLWKSDIASHFSNKRKK is higher in abundance fitness: -0.157 ± 0.072 for the first, 0.066 ± 0.05 for the second.
